Results: patent US20260069727A1, “FORMULATIONS FOR RADIOTHERAPY AND DIAGNOSTIC IMAGING AND USE THEREOF IN TREATMENT, DIAGNOSIS AND IMAGING DISEASES” (priority 2022, published 2026)
“Also recorded” adds a separate entry of the source.

Legend:
[1] = cited from earlier work
[2] = Appearance / visible particles in injection (quality control); format: physicochemical; details: batch QC result
[3] = pH by probe (quality control); format: physicochemical; details: batch QC result; acceptance 4.0-8.0
[4] = Radiochemical purity / stability of the formulation by radioHPLC; format: physicochemical
From the text: The stability of the formulation relates to the stability of the complex, where the radioisotope may undergo dissociation or the complex may undergo radiolysis. The stability of the complex can be measured by considering the radiochemical purity of the formulation. Radiochemical purity is defined as the amount of the radioisotope complexed by the sarcophagine ligand expressed as a percentage of the total amount of the radioisotope present in the formulation. The radioisotope may be present in the formulation as a complex with the sarcophagine ligand, as a free radioisotope or as part of a radiolysis product. […] In the embodiments, described herein, radiochemical purity may be determined by techniques such as radioHPLC, where the amount of the radioisotope in either its complexed or free form is determined and compared with the amount of the radioisotope introduced to the formulation. A person skilled in the art would understand the necessary conditions for separation, analysis and quantification of the formulation by radioHPLC. Nonetheless, in certain embodiments, the mobile phase used to analyse a formulation as disclosed herein by radioHPLC comprises about 0.1% trifluoroacetic acid (TFA) in water. […]
Product stability was monitored up to 96 hours post End of Synthesis (EOS) for 3 validation batches of [^67Cu]Formula(Ib) in an aqueous formulation prepared as outlined above. […]

[5] = Free 67Cu in the formulation by radioTLC; format: physicochemical; details: batch QC result; acceptance ≤5%
From the text: The stability of the complex can also be measured by considering the amount of free copper, i.e. free copper radioisotope that is intended to be complexed with the sarcophagine ligand, present in the formulation. In certain embodiments, the amount of free copper radioisotope present in formulation is not more than about 5%. In other embodiments, the amount of free copper radioisotope present in the formulation is not more than about 4%. In other embodiments, the amount of free copper present in the formulation is not more than about 3%. In other embodiments, the amount of free copper present in the formulation is not more than about 2%. In other embodiments, the amount of free copper present in the formulation is not more than about 1%. In other embodiments, the amount of free ^67Cu present in the formulation is less than about 1%. In other embodiments, the amount of free ^67Cu present in the formulation is less than about 2%.
TLC was performed with a mobile phase of 10 mM NaEDTA in 50 mM phosphate buffer using a silica gel 60 F254 aluminium backed TLC plate with dimensions of 1 cm×10 cm.

SMILES | pKa (acid dissociation constant) [1] | Appearance/Visible particles in injection [2] | pH by probe [3] | Radiochemical purity by radio-HPLC ([4]; batch QC result, acceptance ≥90%) | radiochemical purity (RPC) over the stability test ([4]; up to 96 hours post End of Synthesis, 3 validation batches) | Free [67Cu]Cu2+ by TLC [5]
O=C(O)c1cc(O)ccc1O [gentisic acid, 2,5-dihydroxybenzoic acid] | about 2.5 | – | – | – | – | –
CC(C)CC(NC(=O)CC(O)C(CC(C)C)NC(=O)C(Cc1c[nH]cn1)NC(=O)CNC(=O)C(NC(=O)C(C)NC(=O)C(Cc1c[nH]c2ccccc12)NC(=O)C(CCC(N)=O)NC(=O)C(Cc1ccccc1)NC(=O)CCOCCNC(=O)CCCC(=O)NC12CNCCNCC(C)(CNCCNC1)CNCCNC2)C(C)C)C(N)=O (stereo not drawn) [[^67Cu]Formula (Ib), metal not drawn] | – | Clear ✓; also recorded: Particle-free ✓ | 6.72 | 94.23% | ≥ 94.0% | 0%
